From publication PMC12871931, “The importin‐alpha superfamily engages in ethylene signaling by shuttling [sequence] INSENSITIVE 2 from the endoplasmic reticulum to the nucleus” (The Febs Journal, 2025) come the findings set out here.

Ends that are not written are not given here. * marks the point of attachment. 5‑TAMRA = 5-carboxytetramethylrhodamine, N-terminal label, CN(C)c1ccc2c(-c3ccc(C(=O)*)cc3C(=O)[O-])c3ccc(N(C)C)cc3[o+]c2c1

What all share (settings): both partners purified
Experiment [1] concerns the target T1, importin α2 (IMPα2), Arabidopsis thaliana, recombinant (Arabidopsis thaliana, UniProt F4JL11 1-535).
T1 construct: importin alpha isoform 2 of Arabidopsis thaliana; gene isolated from A. thaliana, cloned into pETEV21a; source: E. coli BL21pRARE, purified (Ni2+-IMAC)
As to the kind of experiment: fluorescence polarisation; direct titration: TAMRA-NOP-1 constant at 250 nM, IMPα protein concentration varied; 50 μL samples; LS55 spectrometer; Kd by Logistic Fit in Origin; three independent measurements.

The target of experiment [2] is T2, importin α3 (IMPα3), Arabidopsis thaliana, recombinant (Arabidopsis thaliana, UniProt O04294 1-531).
T2 construct: importin alpha isoform 3 of Arabidopsis thaliana; gene isolated from A. thaliana, cloned into pETEV21a; source: E. coli BL21pRARE, purified (Ni2+-IMAC)
T2 sequence (O04294 whole entry, canonical isoform): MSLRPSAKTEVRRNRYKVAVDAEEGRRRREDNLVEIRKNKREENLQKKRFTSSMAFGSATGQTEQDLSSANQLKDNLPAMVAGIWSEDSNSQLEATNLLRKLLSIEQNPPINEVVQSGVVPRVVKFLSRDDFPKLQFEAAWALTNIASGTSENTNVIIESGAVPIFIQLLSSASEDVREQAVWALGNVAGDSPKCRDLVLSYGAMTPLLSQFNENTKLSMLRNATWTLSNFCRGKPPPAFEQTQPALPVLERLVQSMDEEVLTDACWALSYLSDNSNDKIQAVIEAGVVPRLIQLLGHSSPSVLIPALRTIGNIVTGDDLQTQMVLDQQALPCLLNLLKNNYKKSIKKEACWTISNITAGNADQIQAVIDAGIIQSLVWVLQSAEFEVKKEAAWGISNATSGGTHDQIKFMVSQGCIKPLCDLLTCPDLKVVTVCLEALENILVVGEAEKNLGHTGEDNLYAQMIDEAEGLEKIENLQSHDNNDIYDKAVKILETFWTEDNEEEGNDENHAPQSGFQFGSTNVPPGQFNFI
Described as above.

In experiment [3] the target is T3, importin α4 (IMPα4), Arabidopsis thaliana, recombinant (Arabidopsis thaliana, UniProt O80480 1-538, biotin (Biotin-PEG4-NHS ester Protein Labeling Kit) in the BLI experiments only).
T3 construct: importin alpha isoform 4 of Arabidopsis thaliana; gene isolated from A. thaliana, cloned into pETEV21a; Unlabelled in fluorescence polarisation; biotinylated and held on streptavidin tips in BLI; source: E. coli BL21pRARE, purified (Ni2+-IMAC)
T3 sequence (O80480 whole entry, canonical isoform): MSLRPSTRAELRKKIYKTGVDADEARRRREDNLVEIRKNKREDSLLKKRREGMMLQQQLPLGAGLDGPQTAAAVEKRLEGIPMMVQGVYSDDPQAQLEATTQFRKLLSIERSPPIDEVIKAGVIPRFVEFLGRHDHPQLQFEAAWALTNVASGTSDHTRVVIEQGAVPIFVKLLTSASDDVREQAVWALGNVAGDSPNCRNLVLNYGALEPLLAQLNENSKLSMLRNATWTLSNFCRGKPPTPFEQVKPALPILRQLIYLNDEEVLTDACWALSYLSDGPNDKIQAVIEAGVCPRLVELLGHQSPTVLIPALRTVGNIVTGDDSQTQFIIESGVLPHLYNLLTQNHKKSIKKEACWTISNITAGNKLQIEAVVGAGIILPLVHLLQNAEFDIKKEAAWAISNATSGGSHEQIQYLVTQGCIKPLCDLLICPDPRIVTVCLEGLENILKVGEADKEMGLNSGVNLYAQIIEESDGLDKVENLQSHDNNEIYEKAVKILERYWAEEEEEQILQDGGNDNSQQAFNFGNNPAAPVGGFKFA
Described as above.

The target in experiment [4] is T4, importin α5 (IMPα5), Arabidopsis thaliana, recombinant (Arabidopsis thaliana, UniProt Q9FJ09 1-519).
T4 construct: importin alpha isoform 5 of Arabidopsis thaliana; gene synthesised by GenScript, cloned into pETEV21a; IMPα5 was additionally cloned into pETEV16b (N-terminal deca-His-tag); source: E. coli BL21pRARE, purified (Ni2+-IMAC)
T4 sequence (looked up): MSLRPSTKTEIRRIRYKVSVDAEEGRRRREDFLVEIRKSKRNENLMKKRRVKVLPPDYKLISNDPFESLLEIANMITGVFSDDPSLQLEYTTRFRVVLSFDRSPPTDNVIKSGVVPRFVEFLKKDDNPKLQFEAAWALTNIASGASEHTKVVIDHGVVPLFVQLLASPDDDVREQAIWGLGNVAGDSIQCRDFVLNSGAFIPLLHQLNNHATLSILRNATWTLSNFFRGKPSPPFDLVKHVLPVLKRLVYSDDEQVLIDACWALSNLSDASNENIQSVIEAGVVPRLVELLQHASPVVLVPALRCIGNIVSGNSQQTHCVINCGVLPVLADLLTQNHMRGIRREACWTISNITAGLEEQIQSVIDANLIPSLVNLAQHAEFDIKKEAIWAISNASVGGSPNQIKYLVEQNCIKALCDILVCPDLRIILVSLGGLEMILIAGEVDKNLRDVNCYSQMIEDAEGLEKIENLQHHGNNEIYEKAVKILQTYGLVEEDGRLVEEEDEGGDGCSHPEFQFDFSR
The description is as above.

Experiment [5] deals with T5, importin α6 (IMPα6), Arabidopsis thaliana, recombinant (Arabidopsis thaliana, UniProt Q9FWY7 1-538).
T5 construct: importin alpha isoform 6 of Arabidopsis thaliana; gene synthesised by GenScript, cloned into pETEV21a; source: E. coli BL21pRARE, purified (Ni2+-IMAC)
T5 sequence (looked up): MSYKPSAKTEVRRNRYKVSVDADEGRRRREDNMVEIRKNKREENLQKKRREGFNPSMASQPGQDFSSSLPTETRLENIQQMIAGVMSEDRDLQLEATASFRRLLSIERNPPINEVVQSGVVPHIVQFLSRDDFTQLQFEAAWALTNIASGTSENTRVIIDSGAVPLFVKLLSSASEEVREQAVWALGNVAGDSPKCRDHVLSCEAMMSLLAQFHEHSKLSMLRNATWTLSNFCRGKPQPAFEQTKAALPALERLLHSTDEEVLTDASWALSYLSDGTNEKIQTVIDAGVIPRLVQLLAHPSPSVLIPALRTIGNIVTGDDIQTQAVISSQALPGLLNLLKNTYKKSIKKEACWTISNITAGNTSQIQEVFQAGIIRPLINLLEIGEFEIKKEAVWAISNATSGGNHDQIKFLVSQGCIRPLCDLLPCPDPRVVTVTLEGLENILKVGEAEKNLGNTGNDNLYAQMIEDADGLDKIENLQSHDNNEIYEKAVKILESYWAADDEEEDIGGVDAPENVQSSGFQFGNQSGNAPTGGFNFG
Described as above.

The target in experiment [6] is T6, importin α8 (IMPα8), Arabidopsis thaliana, recombinant (Arabidopsis thaliana, UniProt Q9FJ92 1-441).
T6 construct: importin alpha isoform 8 of Arabidopsis thaliana (contains only ARM repeats, no IBB domain); gene isolated from A. thaliana, cloned into pETEV21a; source: E. coli BL21gold, purified (Ni2+-IMAC)
T6 sequence (looked up): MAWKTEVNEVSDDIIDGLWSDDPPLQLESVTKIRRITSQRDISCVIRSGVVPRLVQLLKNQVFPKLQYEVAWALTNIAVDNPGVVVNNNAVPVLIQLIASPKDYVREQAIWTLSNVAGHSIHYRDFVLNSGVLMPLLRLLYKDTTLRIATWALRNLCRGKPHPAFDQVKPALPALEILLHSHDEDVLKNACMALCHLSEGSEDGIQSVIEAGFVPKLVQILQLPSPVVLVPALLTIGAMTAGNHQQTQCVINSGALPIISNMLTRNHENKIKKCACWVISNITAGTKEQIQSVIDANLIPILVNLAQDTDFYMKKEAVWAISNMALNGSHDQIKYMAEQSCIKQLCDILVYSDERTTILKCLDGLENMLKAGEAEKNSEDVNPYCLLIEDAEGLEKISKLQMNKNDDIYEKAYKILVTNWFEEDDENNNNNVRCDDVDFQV
The description is as above.

Experiment [7] addresses T7, importin α9 (IMPα9), Arabidopsis thaliana, recombinant (Arabidopsis thaliana, UniProt F4KF65 1-519).
T7 construct: importin alpha isoform 9 of Arabidopsis thaliana; gene synthesised by GenScript, cloned into pETEV21a; source: E. coli BL21pRARE, purified (Ni2+-IMAC)
T7 sequence (looked up): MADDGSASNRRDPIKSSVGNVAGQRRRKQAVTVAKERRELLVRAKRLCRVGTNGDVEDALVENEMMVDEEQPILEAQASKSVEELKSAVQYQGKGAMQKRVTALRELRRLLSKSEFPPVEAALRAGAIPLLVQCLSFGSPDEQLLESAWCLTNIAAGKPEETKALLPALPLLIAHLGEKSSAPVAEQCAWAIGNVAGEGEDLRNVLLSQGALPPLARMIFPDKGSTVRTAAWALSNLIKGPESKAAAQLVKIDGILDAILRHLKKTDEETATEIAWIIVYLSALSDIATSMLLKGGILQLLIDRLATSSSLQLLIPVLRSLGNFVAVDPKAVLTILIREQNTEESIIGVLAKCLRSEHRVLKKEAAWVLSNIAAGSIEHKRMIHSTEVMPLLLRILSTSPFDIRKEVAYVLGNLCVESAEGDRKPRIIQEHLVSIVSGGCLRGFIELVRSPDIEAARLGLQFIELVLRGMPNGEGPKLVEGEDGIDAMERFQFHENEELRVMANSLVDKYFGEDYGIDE
Described as above.

Experiment [8] has as its target T3, importin α4 (IMPα4), Arabidopsis …. As to the kind of experiment: fluorescence polarisation; competition: TAMRA-NOP-1 and IMPα4 (6 μM) held constant, unlabelled competitor concentration varied; Logistic Fit in Origin; n = 3.
Experiment [9] has the same target. Put plainly: BLI; Octet K2; biotinylated ΔIBB_IMPα1 or IMPα4 loaded (15 μM, 600 s) on streptavidin biosensors; peptides/protein in solution; 100 mM Tris pH 7.0, 100 mM KCl, 0.01% Tween 20; room temperature; 300 s association, 300 s dissociation; dose response curves, 1:2 heterogeneous ligand model. For orientation: BLI is a label-free optical method that tracks binding on a fibre tip over time.

T1 sequence (F4JL11 whole entry, canonical isoform): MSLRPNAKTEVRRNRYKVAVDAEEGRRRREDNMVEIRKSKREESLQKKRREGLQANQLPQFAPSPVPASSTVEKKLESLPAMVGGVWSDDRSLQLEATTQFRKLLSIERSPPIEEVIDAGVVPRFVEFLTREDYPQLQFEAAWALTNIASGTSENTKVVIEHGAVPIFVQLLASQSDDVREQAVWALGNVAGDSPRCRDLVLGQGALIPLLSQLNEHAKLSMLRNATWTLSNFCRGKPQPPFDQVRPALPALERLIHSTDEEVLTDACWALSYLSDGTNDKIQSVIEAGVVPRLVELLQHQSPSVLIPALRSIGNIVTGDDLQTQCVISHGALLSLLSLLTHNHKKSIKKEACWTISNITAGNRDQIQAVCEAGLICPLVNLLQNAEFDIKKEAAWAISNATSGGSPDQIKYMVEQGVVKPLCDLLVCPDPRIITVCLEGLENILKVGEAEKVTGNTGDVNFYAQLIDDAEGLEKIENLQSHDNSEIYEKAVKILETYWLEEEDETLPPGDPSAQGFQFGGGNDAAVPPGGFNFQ

B1: TAMRA‐NOP‐1 (EIN2 NLS peptide, N‐terminally labeled with 5‐TAMRA) (peptide)
peptide: {5‑TAMRA}-LKRYKRRL
notes: also called fluorescently labeled NOP‐1; source: synthetic peptide (solid-phase peptide synthesis, Fmoc, made in house)
For B1, the binding result in [1] and in [2] was “binds” throughout. Moreover, the Kd is roughly 6 µM in [3]; 12.9 ± 0.9 µM in experiment [4]; 8.7 ± 1.5 µM in experiment [5]; 7.9 ± 0.2 µM in experiment [6]; 13.8 ± 0.9 µM in experiment [7].

B2: N41P‐1 (EIN2 residues 1229–1269) (peptide, UniProt Q9S814 1229-1269, looked up)
peptide: KDVEMAISCRKGRTGTAAGDVAFPKGKENLASVLKRYKRRL
notes: 41 residues; The methods speak of amidated C-termini and acetylated N-termini of 'the D-ri-peptides'; whether this holds for N41P-1 is not clear; also called extended EIN2‐NLS probe N41P‐1; source: synthetic peptide, bought: GenScript
As to B2, the equilibrium dissociation constant (Kd) in experiment [8] was determined as 8.1 ± 1.1 µM; in experiment [9] it was 9.8 µM.

B3: GB1‐AtEIN2C^1215–1281 (domain or fragment, Arabidopsis thaliana, UniProt Q9S814 1215-1281, looked up)
chain: KGKCTTAVTLLDLIKDVEMAISCRKGRTGTAAGDVAFPKGKENLASVLKRYKRRLSNKPVGMNQDGP
notes: cloned into pETEV16b with a GB1-domain at the N terminus to enhance solubility; also called GB1_AtEIN2^1215–1281; shortened EIN2 CEND; source: E. coli BL21pRARE, purified (Ni2+-IMAC); not shown: GB1 domain, N-terminal, kept
Turning to B3, the Kd in experiment [8] worked out at 22.1 ± 2.8 µM. Further, in experiment [9], the Kd high was 21.4 µM and the Kd low came to 455 nM.

B4: NOP‐1 (EIN2 NLS peptide, EIN2 residues 1262–1269) (peptide)
peptide: LKRYKRRL
notes: 8 residues; The methods speak of amidated C-termini and acetylated N-termini of 'the D-ri-peptides'; whether this holds for NOP-1 is not clear; also called EIN2‐NLS core motif; basic EIN2‐NLS probe; source: synthetic peptide, bought: GenScript
Take B4: the equilibrium dissociation constant (Kd) turned out to be 4.1 ± 0.4 µM in [8] and 7.6 µM in experiment [9].

For orientation: Kd means the constant that tells how readily two partners part at equilibrium.
